Results as given in patent publication US20130079286A1 (Pieris, published 2013).

T1: ovalbumin (UniProt P01012 2-386)
T1 sequence (looked up): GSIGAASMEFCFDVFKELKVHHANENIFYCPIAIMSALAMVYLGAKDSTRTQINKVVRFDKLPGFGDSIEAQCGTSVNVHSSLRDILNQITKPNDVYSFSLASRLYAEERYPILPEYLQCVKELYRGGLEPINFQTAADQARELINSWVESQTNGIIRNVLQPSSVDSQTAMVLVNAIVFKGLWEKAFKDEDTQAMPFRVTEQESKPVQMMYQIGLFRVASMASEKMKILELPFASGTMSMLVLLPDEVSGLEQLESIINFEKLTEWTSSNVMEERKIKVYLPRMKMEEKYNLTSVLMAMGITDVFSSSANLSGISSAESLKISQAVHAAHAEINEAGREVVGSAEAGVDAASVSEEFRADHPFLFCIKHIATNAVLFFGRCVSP

B1: Lcn2 mutein N10D (designed binder)
chain: QDSTSDLIPAPPLSKVPLQQNFQDNQFHGKWYVVGAAGNTWLREDKDPYKMQATIYELKEDKSYNVTNVLFMSKKCRYMIHTFVPGSQPGEFTLGSIKSWPGLTSWLVRVVSTNYNQHAMVFFKRVYQNREFFGITLYGRTKELTSELKENFIRFSKSLGLPENHIVFPVPIDQCIDG
notes: also called NIOD; NI OD
B2: Lcn2 mutein N7E (designed binder)
chain: QDSTSDLIPAPPLSKVPLQQNFQDNQFHGKWYVVGEAGNSLLREDKDPRKMYATIYELKEDKSYNVTSVRFRSKKCHYLIRTFVPGSQPGEFTLGLIKSKPGHTSFLVRVVSTNYNQHAMVFFKTVAQNREYFFITLYGRTKELTSELKENFIRFSKSLGLPENHIVFPVPIDQCIDG
B3: Lcn2 mutein N7A (designed binder)
chain: QDSTSDLIPAPPLSKVPLQQNFQDNQFHGKWYVVGKAGNHDLREDKDPRKMQATIYELKEDKSYNVTNVRFVHKKCNYRIWTFVPGSQPGEFTLGNIKSWPGLTSWLVRVVSTNYNQHAMVFFKRVYQNRELFEITLYGRTKELTNELKENFIRFSKSLGLPENHIVFPVPIDQCIDG
B4: Lcn2 mutein H1-G1 (designed binder)
chain: QDSTSDLIPAPPLSKVPLQQNFQDNQFHGKWYVVGCAGNVLLREDKDPLKMYATIYELKEDKSYNVTSVGFDDKKCLYKIRTFVPGSQPGEFTLGRIKSEPGGTSWLVRVVSTNYNQHAMVFFKEVAQNRETFNITLYGRTKELTSELKENFIRFSKSLGLPENHIVFPVPIDQCIDG
notes: carries a free Cys at position 36

What was measured:
[1] = biological target: T2, BSA (bovine, UniProt P02769 25-607); assay: ELISA on coated protein
T2 construct: also called bovine serum albumin
T2 sequence (P02769 25-607 limits assumed): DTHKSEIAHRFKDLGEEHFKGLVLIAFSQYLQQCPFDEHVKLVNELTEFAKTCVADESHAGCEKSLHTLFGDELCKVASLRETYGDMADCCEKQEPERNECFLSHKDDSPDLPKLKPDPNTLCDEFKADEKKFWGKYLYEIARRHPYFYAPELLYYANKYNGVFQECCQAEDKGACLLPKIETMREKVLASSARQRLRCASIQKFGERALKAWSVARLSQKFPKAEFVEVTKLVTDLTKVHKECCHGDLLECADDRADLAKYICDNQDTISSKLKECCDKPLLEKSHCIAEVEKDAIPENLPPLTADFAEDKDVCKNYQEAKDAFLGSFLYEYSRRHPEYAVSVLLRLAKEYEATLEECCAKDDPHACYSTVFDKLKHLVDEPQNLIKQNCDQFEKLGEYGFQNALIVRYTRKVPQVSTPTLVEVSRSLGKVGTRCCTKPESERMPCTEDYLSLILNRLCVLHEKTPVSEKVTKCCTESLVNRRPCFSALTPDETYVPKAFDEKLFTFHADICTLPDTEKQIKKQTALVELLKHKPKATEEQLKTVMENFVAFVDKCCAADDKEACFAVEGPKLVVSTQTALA

[2] = biological target: T3, recombinant human fibronectin fragment FN789 (human, UniProt P02751 1173-1539); assay: ELISA on coated protein
T3 construct: the entry may be a nucleic acid
T3 sequence (P02751 other isoform, or with tags, fused parts or gaps limits assumed): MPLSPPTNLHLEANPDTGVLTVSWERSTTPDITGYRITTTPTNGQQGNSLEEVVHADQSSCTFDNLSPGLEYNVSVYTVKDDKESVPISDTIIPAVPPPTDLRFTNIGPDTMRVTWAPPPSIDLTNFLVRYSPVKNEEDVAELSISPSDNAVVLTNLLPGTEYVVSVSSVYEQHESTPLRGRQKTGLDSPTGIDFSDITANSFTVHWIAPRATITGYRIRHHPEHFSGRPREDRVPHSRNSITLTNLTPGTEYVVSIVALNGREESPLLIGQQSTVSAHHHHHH

[3] = biological target: T4, recombinant human fibronectin fragment FN7B8 (human, UniProt P02751 1173-1448); assay: ELISA: FN7B8 coated, mutein titrated, detected via Strep-tag II
T4 construct: no separate number is printed for the protein, so the entry may be a nucleic acid
T4 sequence (P02751 other isoform, or with tags, fused parts or gaps limits assumed): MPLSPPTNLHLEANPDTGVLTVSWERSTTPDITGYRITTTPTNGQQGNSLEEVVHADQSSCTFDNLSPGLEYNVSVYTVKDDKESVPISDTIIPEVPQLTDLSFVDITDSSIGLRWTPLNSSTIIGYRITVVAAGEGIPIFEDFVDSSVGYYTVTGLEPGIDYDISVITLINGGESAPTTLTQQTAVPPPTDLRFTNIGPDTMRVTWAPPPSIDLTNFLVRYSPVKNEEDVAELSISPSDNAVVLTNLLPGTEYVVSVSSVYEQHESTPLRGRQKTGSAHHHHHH

[4] = biological target: T4, recombinant human fibronectin fragment …; assay: SPR (BIAcore X), FN7B8 amine-coupled (about 500 RU), mutein as analyte
Excerpt: (§1) FIG. 13 depicts the kinetic real time analysis of Lcn2 mutein N9B measured on a Biacore instrument. FN7B8 was coupled via amine chemistry to a CMD 200 m sensor chip (ΔRU=500) and the purified Lcn2 mutein was applied at varying concentrations. The measured signal is shown as a grey line whereas the curve fit is depicted as a black line in each case.
as §1, with “14” for “13”, “N7E” for “N9B”
Real time analysis of Lcn2 muteins was performed on a BIAcore X system (BIAcore, Uppsala, Sweden) using HBS/ET (20 mM Hepes, pH 7.5, 150 mM NaCl, 1 mM EDTA containing 0.005% (v/v) Tween 20) as running buffer. 200 μg/ml solution of recombinant FN7B8 in 10 mM Na-acetate, pH 4.0 was immobilized on a CMD 200 m Sensorchip (XanTec bioanalytics, Duesseldorf, Germany) using standard amine coupling chemistry (Biacore, Uppsala, Sweden), resulting in a ligand density of about 500 resonance units (RU). The purified Lcn2 mutein was applied at a flow rate of 25 μl/min at concentrations of 2.5 up to 160 nM. The sensorgrams were corrected by subtraction of the corresponding signals measured for the control channel, which had been activated and blocked with ethanolamine.

[5] = biological target: T5, recombinant fibronectin single domain ED-B (human); assay: SPR (BIAcore X), ED-B amine-coupled; heterogeneous analyte competing reaction model, first set
T5 construct: the entry may be a nucleic acid; also called extra domain-B; extra-domain B
T5 sequence (chain, as listed by the source limits assumed): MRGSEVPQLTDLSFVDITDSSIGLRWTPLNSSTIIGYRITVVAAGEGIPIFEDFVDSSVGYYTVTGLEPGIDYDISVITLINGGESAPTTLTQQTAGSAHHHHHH
Protocol: (§2) Real time interaction analysis of Lcn2 muteins was performed on a BIAcore X instrument using HBS/ET (20 mM Hepes, pH 7.5, 150 mM NaCl, 1 mM EDTA containing 0.005% (v/v) Tween 20) as running buffer. 100 μg/ml solution of recombinant ED-B in 10 mM Na-acetate, pH 4.0 was immobilized on a CMD 200 m Sensorchip using standard amine coupling chemistry, resulting in a ligand density of about 180 resonance units (RU). The purified Lcn2 mutein was applied at a flow rate of 25 μl/min at concentrations of 2.5 up to 160 nM. The sensorgrams were corrected by subtraction of the corresponding signals measured for the control channel, which had been activated and blocked with ethanolamine. […] In the case of N10D the heterogeneous analyte competing reaction model was used for data fitting, resulting in two sets of kinetic constants.

[6] = biological target: T5, recombinant fibronectin single domain …; assay: SPR (BIAcore X), ED-B amine-coupled; heterogeneous analyte competing reaction model, second set
Protocol: as §2

[7] = biological target: T5, recombinant fibronectin single domain …; assay: SPR (BIAcore X), ED-B amine-coupled (about 180 RU), mutein as analyte
Protocol: (§3) FIG. 27 depicts the kinetic real time analysis of Lcn2 variants N7A (A), N7E (B), N9B (C) and N10D (D) measured on a Biacore X instrument. The single fibronectin domain ED-B was coupled via amine chemistry to a CMD 200 m sensor chip (ΔRU=180) and the purified Lcn2 variants were applied at varying concentrations. The measured signals are shown as traces together with the curve fits.
as §2

[8] = biological target: T5, recombinant fibronectin single domain …; assay: SPR (BIAcore X), ED-B immobilised by amine coupling, Lcn2 mutein injected at 0 to 160 nM, 1:1 model
Protocol: as §3, §2

[9] = biological target: T6, Trx-Aβ28 fusion protein (Escherichia coli (strain K12), UniProt P0AA25 1-76 = thioredoxin, Biotin-labelled through an NHS ester (2:1) in the capture and competitive ELISAs; unlabeled in the direct ELISA and as competitor.); assay: capture ELISA: mutein captured, biotinylated Trx-Aβ28 titrated
T6 construct: the entry may be a nucleic acid; also called TrxAbeta28H6
Protocol: (§4) FIG. 5 depicts the binding activity of the Lcn2 muteins H1-G1, S1-A4, and US7 in capture ELISAs with different biotinylated Aβ targets. StrepMAB-Immo at 10 μg/ml was immobilized on microtitre plates and employed for capturing of 1 JAM Lcn2 muteins via the Strep-tag H. In figures A to C the binding of the Lcn2 muteins S1-A4 and US7 to (A) biotinylated Aβ40, (B) biotinylated Trx-Aβ28, and (C) biotinylated MBP-Aβ40 are shown. Binding was detected by incubation with ExtrAvidin/AP and a subsequent chromogenic reaction with pNPP. Ovalbumin (Ova), thioredoxin (Trx), and maltose binding protein (MBP) were used as negative controls. Additionally, binding of wild-type (wt) lipocalin was tested. The data were fitted to a monovalent binding model.
(§5) For selective capturing of the Lcn2 muteins carrying the C-terminal Strep-tag II (Schmidt and Skerra (2007) Nat. Protoc. 2, 1528-1535), a 96-well MaxiSorp polystyrene microtitre plate (Nunc, Langenselbold, Germany) was coated with 10 μg/mL StrepMAB-Immo (IBA, Göttingen, Germany) in PBS over night at 4° C. and blocked with 3% (w/v) BSA in PBS/T at room temperature for 1 h. After 3 washing steps with PBS/T, 50 μL of a 1 μM solution of the purified Lcn2 muteins from Example 7 were applied to all wells for 1 h. After washing, 50 μL of a dilution series of the biotinylated targets Aβ40, MBP-Aβ40 or Trx-Aβ28 from Example 2 were added and incubated for 1 h whereby the biotinylated forms of Ova, MBP and Trx from Example 2 served as negative control proteins. The wells were washed again and bound conjugate was detected with 50 μL of ExtrAvidin/AP conjugate (Sigma-Aldrich, Steinheim, Germany) diluted 1:5000 in PBS/T for 1 h, followed by signal development in the presence of 100 μL 0.5 mg/mL p-nitrophenyl phosphate (AppliChem, Darmstadt, Germany) in 100 mM Tris/HCl, pH 8.8, 100 mM NaCl, 5 mM MgCl₂.

[10] = biological target: T7, biotinylated Aβ40 peptide (human, C-terminal biotin group attached via a lysine spacer); assay: capture ELISA: mutein captured via Strep-tag II, biotinylated Aβ40 titrated
T7 construct: Synthetic peptide (Peptide Speciality Laboratory) with a C-terminal biotin on a lysine spacer; used in the capture ELISAs
T7 sequence (peptide, as listed by the source): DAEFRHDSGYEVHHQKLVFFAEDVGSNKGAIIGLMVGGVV
Protocol: (§6) FIG. 19 depicts the binding activity of the Lcn2 muteins H1GA, H1GV, and H1-G1 in capture ELISAs with the biotinylated Aβ targets Aβ40 (A) and Trx-Aβ28 (B). StrepMAB-Immo was immobilized at 10 μg/ml on microtitre plates and employed for capturing of 1 μM Lcn2 muteins via the Strep-tag H. Binding of the biotinylated targets, applied in a dilution series, was then detected by incubation with ExtrAvidin/AP and a subsequent chromogenic reaction with pNPP. […] The data were fitted to a monovalent binding model.

[11] = biological target: T6, Trx-Aβ28 fusion protein; assay: direct ELISA: Trx-Aβ28 coated, mutein titrated, detected via Strep-tag II
Protocol: The Aβ targets Trx-Aβ28 and MBP-Aβ40 as well as the control protein maltose binding protein (MBP) were immobilized at 2 μM in PBS over night. Bound Lcn2 muteins were detected via their Strep-tag II using Streptavidin/AP followed by a chromogenic reaction with pNPP. As a control, the binding of wild-type (wt) lipocalin was tested. The data were fitted to a monovalent binding model.
Alternatively, for a “direct” ELISA, 2 μM unlabeled Aβ40 target from Example 2 was adsorbed onto a 96-well MaxiSorp polystyrene microliter plate (Nunc, Langenselbold, Germany) and incubated with the purified Lcn2 mutein, which was detected via the Strep-tag II using a 1:1500 dilution of Streptavidin/AP conjugate (GE Healthcare UK Ltd, Buckinghamshire, UK). As a control, 2 μM MBP from Example 2 was adsorbed onto the ELISA plate. Absorption at 405 nm was measured in a SpectraMax 250 reader (Molecular Devices, Sunnyvale, USA).

[12] = biological target: T6, Trx-Aβ28 fusion protein; assay: capture ELISA: mutein captured via Strep-tag II, biotinylated Trx-Aβ28 titrated
Protocol: as §6

[13] = biological target: T7, biotinylated Aβ40 peptide; assay: capture ELISA: mutein captured via Strep-tag II on StrepMAB-Immo, biotinylated Aβ40 titrated
Protocol: as §4, §5

[14] = biological target: T1, ovalbumin; assay: capture ELISA: 1 µM Lcn2 protein captured via Strep-tag II on coated StrepMAB-Immo, biotinylated target titrated, ExtrAvidin/AP + pNPP
Protocol: as §4, §5

| Binder | binding result [1] | binding result [2] | Kd [3] | Kd [4] | koff [4] | kon [4] | koff [5] | kon [5] | koff [6] | kon [6] | Kd [7] | koff [7] | kon [7] | Kd [8] | Kd [9] | Kd [10] | Kd [11] | Kd [12] | Kd [13] | binding result [14] |
| --- | --- | --- | --- | --- | --- | --- | --- | --- | --- | --- | --- | --- | --- | --- | --- | --- | --- | --- | --- | --- |
| B1 | no binding | no binding | 51.2 nM | 38 nM | 0.058 s⁻¹ | 1.5e+06 M⁻¹ s⁻¹ | 0.064 s⁻¹ | 621000 M⁻¹ s⁻¹ | 0.00335 s⁻¹ | 29400 M⁻¹ s⁻¹ | – | – | – | – | – | – | – | – | – | – |
| B2 | – | – | 30 nM | 7.2 nM | 0.03 s⁻¹ | 4.1e+06 M⁻¹ s⁻¹ | – | – | – | – | 17.3 nM | 0.054 s⁻¹ | 3.1e+06 M⁻¹ s⁻¹ | 17 nM | – | – | – | – | – | – |
| B3 | no binding | no binding | 14.8 nM | 5.8 nM | 0.026 s⁻¹ | 4.6e+06 M⁻¹ s⁻¹ | – | – | – | – | 127 nM | 0.138 s⁻¹ | 1.8e+06 M⁻¹ s⁻¹ | 120 nM | – | – | – | – | – | – |
| B4 | – | – | – | – | – | – | – | – | – | – | – | – | – | – | 24.3 nM | 21.5 nM | 290 nM | 24.4 nM | 16.2 nM | no binding |
